Patent US6596526

Each protein was assayed against recombinant von Willebrand Factor precursor, P04275.

Protein | processing of rvWF precursor (Western blot)
Furin deletion mutant Helix 10 (protein) QKVFTNTWAVRIPGGPAVANSVARKHGFLNLGQIFGDYYHFWHRGVTKRSLSPHRPRHSRLQREPQVQWLEQQVAKRRTKRDVYQEPTDPKFPQQWYLSGVTQRDLNVKAAWAQGYTGHGIVVSILDDGIEKNHPDLAGNYDPGASFDVNDQDPDPQPRYTQMNDNRHGTRCAGEVAAVANNGVCGVGVAYNARIGGVRMLDGEVTDAVEARSLGLNPNHIHIYSASWGPEDDGKTVDGPARLAEEAFFRGVSQGRGGLGSIFVWASGNGGREHDSCNCDGYTNSIYTLSISSATQFGNVPWYSEACSSTLATTYSSGNQNEKQIVTTDLRQKCTESHTGTSASAPLAAGIIALTLEANKNLTWRDMQHLVVQTSKPAHLNANDWATNGVGRKVSHSYGYGLLDAGAMVALAQNWTTVAPQRKCIIDILTEPKDIGKRLEVRKTVTACLGEPNHITRLEHAQARLTLSYNRRGDLAIHLVSPMGTRSTLLAARPHDYSADGFNDWAFMTTHSWDEDPSGEWVLEIENTSEANNYGTLTKFTLVLYGTAPEGAEMWHQAMEVHLPEVVAGLSCAFIVLVFVTVFLVLQLRSGFSFRGVKVYTMDRGLISYKGLPPEAWQEECPSDSEEDEGRGERTAFIKDQSAL | the R683A, Helix 10, Loop 10 and 578-711 furin constructs evidence proteolytic activity
Furin deletion mutant Loop 10 (protein) QKVFTNTWAVRIPGGPAVANSVARKHGFLNLGQIFGDYYHFWHRGVTKRSLSPHRPRHSRLQREPQVQWLEQQVAKRRTKRDVYQEPTDPKFPQQWYLSGVTQRDLNVKAAWAQGYTGHGIVVSILDDGIEKNHPDLAGNYDPGASFDVNDQDPDPQPRYTQMNDNRHGTRCAGEVAAVANNGVCGVGVAYNARIGGVRMLDGEVTDAVEARSLGLNPNHIHIYSASWGPEDDGKTVDGPARLAEEAFFRGVSQGRGGLGSIFVWASGNGGREHDSCNCDGYTNSIYTLSISSATQFGNVPWYSEACSSTLATTYSSGNQNEKQIVTTDLRQKCTESHTGTSASAPLAAGIIALTLEANKNLTWRDMQHLVVQTSKPAHLNANDWATNGVGRKVSHSYGYGLLDAGAMVALAQNWTTVAPQRKCIIDILTEPKDIGKRLEVRKTVTACLGEPNHITRLEHAQARLTLSYNRRGDLAIHLVSPMGTRSTLLAARPHDYSADGFNDWAFMTTHSWDEDPSGEWVLEIENTSEANNYGTLTKFTLVLYGTAPEGGSPNSQPYDGHLPEVVAGLSCAFIVLVFVTVFLVLQLRSGFSFRGVKVYTMDRGLISYKGLPPEAWQEECPSDSEEDEGRGERTAFIKDQSAL | the R683A, Helix 10, Loop 10 and 578-711 furin constructs evidence proteolytic activity
Furin deletion mutant 578-711 (protein) QKVFTNTWAVRIPGGPAVANSVARKHGFLNLGQIFGDYYHFWHRGVTKRSLSPHRPRHSRLQREPQVQWLEQQVAKRRTKRDVYQEPTDPKFPQQWYLSGVTQRDLNVKAAWAQGYTGHGIVVSILDDGIEKNHPDLAGNYDPGASFDVNDQDPDPQPRYTQMNDNRHGTRCAGEVAAVANNGVCGVGVAYNARIGGVRMLDGEVTDAVEARSLGLNPNHIHIYSASWGPEDDGKTVDGPARLAEEAFFRGVSQGRGGLGSIFVWASGNGGREHDSCNCDGYTNSIYTLSISSATQFGNVPWYSEACSSTLATTYSSGNQNEKQIVTTDLRQKCTESHTGTSASAPLAAGIIALTLEANKNLTWRDMQHLVVQTSKPAHLNANDWATNGVGRKVSHSYGYGLLDAGAMVALAQNWTTVAPQRKCIIDILTEPKDIGKRLEVRKTVTACLGEPNHITRLEHAQARLTLSYNRRGDLAIHLVSPMGTRSTLLAARPHDYSADGFNDWAFMTTHSWDEDPSGEWVLEIENTSEANNYGTLTKFTLVLYGTAPEGHLPEVVAGLSCAFIVLVFVTVFLVLQLRSGFSFRGVKVYTMDRGLISYKGLPPEAWQEECPSDSEEDEGRGERTAFIKDQSAL | the R683A, Helix 10, Loop 10 and 578-711 furin constructs evidence proteolytic activity
